Assay results: a protein production outcome set (Wang et al. 2014)

Assay: label from the status in PepcDB records

Row | Sequence | protein production
1 | MILDEKNRKNLVFLILQFFDEEGYEESLHLLEQDSGVFFDFSYLSNAILNGNWKDADDYLSAFTSPEANTFSRKMFFGLFKSGGSEAVKIFSKDLRRIPVLKDDSFDDLVEVIAETCCVDKAPGRAKLCVDLHKLAESNPSLRGKLDFPSLNKSALLALISLLCPNCSRRKGGLKEDLICLILQFLYEAKYKNTLHKLEQETKVFFNLNYLAEVMKLGEYGKAEEYLGAFTNWEDNKYSKAMFLELQKLICLQSTEWEVATPSGSLDNMSLKIKLHASVAMLAKKNPVLKDELKFPSMEKSRLLTLVKQTMDWWTCNNTSSLENVPVVSYLCGTPSSMKFFFKKTVPRKKKPNEIKDPSQCNALVLPDCFSEEKIARLTYSPSGDYILALAEDATHKLWTWSSSQNEFCKPRLHQPQSGKTMENEMATSVQKSTSCFAVKGSYLFSTSGGKIAVFDLKNFEKVASFGSPTPMATYFIFIPGDLLAVGLDDGSIFIHCLSSRKVKEKLEGHDQKITCLAFSRCFNVLVSSDSDGKLCLWSTKSWVKLTSKNSTRKFCNRSNLESTSLVTHIQFDPYQIELLVVHDGWIGLYEVRTLDCRLQWIPDASDPAITSATYSSDGEIIYVGFRCGSIKIVDSKTFMTLCQINLTSFTQLSTSNISLEVYPTVVAAHPSHPNQISAGLSNGKVIVLQPLWSGGWGEAAPLEDNGDYSNDSDHSY | failed
2 | MSAATKQQCCARAEVPVRNLHSCDVFGLPAGGAFGRPRRDKENDMSLGTIILIILIIALLGGFTGVGGGPFYGTGYYGGGGLGLVIVILLILLLLGKI | failed
3 | SEAGGLPLELWRMILAYLHLPDLGRCSLVCRAWYELILSLDSTRWRQLCLGCTECRHPNWPNQPDVEPESWREAFKQHYLASKTWTKNALDLESSICFSLFRRRRERRTLSVGPGREFDSLGSALAMASLYDRIVLFPGVYEEQGEIILKVPVEIVGQGKLGEVALLASIDQHCSTTRLCNLVFTPAWFSPIMYKTTSGHVQFDNCNFENGHIQVHGPGTCQVKFCTFKNTHIFLHNVPLCVLENCEFVGSENNSVTVEGHPSADKNWAYKYLLGLIKSSPTFLPTEDSD | not failed
4 | MLLRLPLLDLTPLPAPFYELAKDVEQSLITDPEKAREVAAKLHAATDTAQGLHRAYAELLLARTLLSTRQWQAALESFEKARKSLLALERAALVAHAVLGRVYILLGTGQYAEASAEAAELEAQLANGPVQAMEIRALALNAIAYAEYAQGRPVQAINHLKEALKLREQLSPIIIAACLCNLGISNIEQGNYREAIYWLMEAYRAHPDSNEDRQLELATLTNLAYAHYLAGDLSLATEITQKAYAAAGEWQSYKVRAYSALNLGTYNTELQQTGRARSYLQEALVLSQTQPELTADAVLRASILDSLGTLEHQDGNSESALELYTRAREIAQRDELPAVEALTQLNIGRMLGQLGRPEARAELERALELAVAACLFKEQFEAHTALAELTAAAADWRSAYRHQQELTRLKLHLLEGEHERQRKELRAELDLEQMRREGELSRERLKIEVAARERAEAETLERTQQLAQAQREVVLCLALAAEYRDSITGEHIKRVGTFAAHIALALGWSQADAELLMLASRLHDVGKIGIPDSILLKPGKLTEVEYVQMQAHTLIGSQILGQGNSALLKLAQTIALSHHERWNGEGYPYGLHGEAIPLAGRIVAVADVYDALIQRRPYKAAWTPEQAAAELSAQAGRHFDPALVEVALRILNDVHYSVDELKELGPPTVGPAAASLERELALRTQELQEARKNAGELLQLALSDSLTGLHNRRALELDLEQRIYPGAVDFYMTSLDLDSLKEINDSQGHQYGDQLLRQFALCLRQSCAAGKTYRIGGDEFAVLWNLDVTEQDIVQVLRRLPQNLRVTGQPGISFSYGSACYNRDAATAGDLLRVSDARMYRMKVGRRGEETDSIWFKEDH | failed
5 | MGVDNFSTTKKMFTWEVPGERVITLMTAGNLATTQALISLLEERSKTPSERSPSILERPTMFEVARLVGATLKEVIADTAGTGQVASSQFKASVIVGGQVKGGLPTLFLIYPEGNFIEVTEDSPFFQIGEAKYGKPILVRAYDPDLSFEDTIRLLMVSFDSTIKANLSVGLPLDLQVYANDSFAIKEQSRVEADDAYFQSISERWGDALRKALSDLPPYKSLLEHHHHHH | failed
6 | MGDNWRYEVKYDGFRTILFWTKETIRLESRNERLLTDQFPEIHDFCQRISNKVEAWLPITIDGELVHLVSPYRAHFAPIQTRSFMRKHETIAASSIKTPATLLAFDILELKGKTLVDLPYDERKKQLKALLKAIDVPLEHHHHHH | failed
7 | THSETITIPVFDTQVAGTLLTPRAKLPGVLFVHGWGGSQRFDLSRARDIAGLGCICLTFDLRGHAATEAQRRQVTREDSLRDIMAAYDALIAHPAVDTSAIAVVGSSYGGYLAAILTTLRAVRWLALHVPALYRDDEWAQPKLQLDRAAISAYRHATVAPEGNRALSACSSFRGDVLIVEAEHDDYIPHSTIMSYRGAFLHSHSLTHRIVDGADHALSDKRCQQAYSSILLNWATEMV | failed
8 | MNAIGIVGTGAMGRGIAQIAAQAGLRVRLFDASPQAVEAARAALADTLARLAAKGRLTADQADAALARLMPAAALAELADCDLVVEAIVENLEAKRDLFRQLEAIVGPETILASNTSSLSITAIAAACRRPERVAGFHFFNPVPLMKVVEVIAGLRSAPAACDALAALAGRMGHAAVRCTDMPGFIVNHAGRGMNTEGLRVVQEGVTAFADVDAVMREQAGFRMGPFELMDLTGLDVSHPVMESIYRQFYDEPRYRPSRITAVRLAGGLLGRKTGEGFYRYADGQKPVPPEAAAPAARPKSVWVSRAHAAGHTAAQRLLLDLCVTPEDGAWPSAEALIVVTPRGLDATAAAVAEGLDGRRTVALDTLYPFAATRRRTLMTTPATDPAHRDAAHGLFAADGVPVTVIRDSGGFVAQRIVACIVNIACDIAQQRIATPADIDLAVTLGLGYPQGPLALGDTLGAGAVLEVLQNLTTLYGDPRYRPSPWLLRRARLGLSLLTPDA | failed
9 | MTAPEPSRDAKRLVRIDGVTKRFGDAPPALDAVSGAIGGGAITGLVGPDGAGKTTLIRLMTGLMLPDTGTMNVLGFDTRKNAAGIQAAIGYMPQRFGLYEDLSVQENLDLYADLRGLPKSERAGAFDELLTFTDLKRFTTRLAGKLSGGMKQKLGLACALLKKPRLLLLDEPGVGVDPISRRDLWKMVENLTKEGIGVVWSTAYLDEAEACDHVLLLNQGKLLFSGKPDEMTERVSDRVFRVSDVTGRRRQVLAELLQADGVIDGVIQGEAIRLVAANGKTPDIGKAGDGALLSPAPPRFEDAFVDMLGGGPGGRSRLAEAQEPLKAEGDRPVIEAKGLTKRFGDFTAADDISFDIRRGEIFGLLGPNGAGKSTTFKMLCGLLKPTGGEGRVAGFDLRRDAAEARNQLGYMAQKFSLYGDLTVMQNLEFFAGVYGLRGQRRHERIELMTEIFDFGRHAREPAKDLPLGLKQRLALACAVMHEPRALFLDEPTSGVDPITRREFWTHINGLVEKGVTVLVTTHFMDEAEYCDRISLIYRGRSIALGSPDELKARVATKNGPDPTMEDAFIALVQQSEAEDAA | failed
10 | MNSLLFVYGTLRKHEKNHHLLAQSACINEQARTKGSLFAAKEGPTVVFNDEDEGYIYGEVYEADELCIHKLDQFFQGYHKQTVFVETDVGIKIALIYFMNKDGCAGFTKISSGDWKEHQMISKSKNPIYYFAYGSCMDNARFQKAGVDHYFQDPVGRAVLKGYTTRFTLKREDGSRADMLEDGGTTEGVLYRIPYSALSYLYKREGVESLTYRPAFVDVEAGGRHYKDCLTFLVLQKEAEIAPPQHYQIEIERGAELYLSPEFTEKLKRHMNSLPKGLEHHHHHH | not failed
11 | MSRARSLFPEMSDFFAGLPSWASIRPVFGDHIIRIEDEMKDGGYELRAEVPGIDPAKDIDITVRDGVLTIKAERTEKKETNGRSEFAYGSFMRSVTLPPGADEDAIKAGYDKGILTISVPVTEPEAAAEKRVAVETVSPLEHHHHHH | failed
12 | MKIAALYDIHGNYPALKEVLKQVKKLSPDLVVLGGDLIAGPMPLETLSLLKHVSTTFKTVGIMGNNDQDIVDIYAKKRVGLSRKATEQLTWIANQLSYKQVSFLRNLLPSISIGNYFFCHAVKNDNTTVFSPQQNKAYIETLFKGVQESYIICGHTHIQFELSLPNKKIINAGSIGMPFSNQFGAQWLWLDDNRIEYKRTIFNQQAAIQLISQTEYPFKNEFIANNLRSTISLSQGYSILNTLIRAQNAQHDLSLEHHHHHH | not failed
13 | MFKKEIILGILCLFAACHSNDEIIEEQESPKNEQQEPKARVDIILSHEEQAMSESTNDFAFQLFKQVCVSENRKTNIFISPFSVSLCLSMSANGANGNTLTEIKKVLGFSSSSMDEVNTYNQKLMSSLLNIDNTTQIGIANSVWINQGFVVKNTFIDINKLKYNAWVESLDFSSASAIATINAWCARNTENRLVDIMDEISPEARLILINALYFKGKWTNPFSKEVTKNDFFTNIDGEQVKVDMMCQEESFRCMNNEKFAIAEFPYGNEAFSMVVVLPVENSSLEESLLWLSNDAWKQCETQMSYQKLQVKMPKFSFKYQKPLNSDMSVLGMKDAFILGLADFRNISASENLYLSSLEQFTYLEVNEEGTESAAITTEVPATSTGDDKDIIHFFMDRPFIFMIKEKSTGLILFMGQVTKL | failed
14 | MDNVELSPATRWGMIATGLLQGLVCYLLIAWLSGKNHSWIVYGVPATVAFSSVLLFSVISFKQKRLWGWLALVFIATLGMSGWLKWQTDGMTPWRAEKALWDFGCYLLLMAMLLLPWIQQSLRIRNDSSRYRYFYQSVWHNVLILLVIFLANGLTWLVLLLWSELFKLVGITFFKTLFFATDWFIYLTLGLVTALAVILARTQSRLIDSIQKLFTLIATGLLPLVSLLTLMFIITLPFTGLSAISRHISAAGLLLTLAFLQLILMAIVRDPQKASLPWTGPLRCLIKTALLVAPLYVFIAAWALWLRVAQYGWTVDRLQGALAVLVLLVWSLGYFVSIVWRKGQNPLVLQGKVNLAVSLLVLVILVLLNSPVLDSMRISVNSHMARYQSGKNTPDQVTIYMLEHSGRYGRAALESLKSDAEYMKDPKRARDLLMALDGEQHLQQQISEKVLAENVLIAPGSGKPDATFWSALIQDRYNVMTCIEKDACVLVEQDLNSDGRAERILFAFDDERYIVYGFDPDKKEWQELTMSLLPRDITKEKLLTAAKDGKLGTKPKAWRDLVVDGERLDVNLNE | failed
15 | MAVYMLNMGIVFVWSWFAKMYGREDHRLPTGYRPNAILTVVPLASLIIVAGLRYKVGTDYHTYMLLYELAGKYNSIWEIFGFGTGKSSTDPGFTALLWILNQISADPALMFAVVAAITYIYIVKTLYVYGRPFELSMFLFIGMFHYYASFNGIRQYMAAAILFWAVRYLIDGKLVRYMIVVLICSLFHSSALIMIPVYFIVRRKAWSPVLWCLMLVFLAGTFLYQKFLSVFLVVLENSQYGHYEEWLMKNTNGMNVIKIIVLLLPLALAFCFREQLRKRWPEVDYIVNLCLIGFLFGILATKDVIFARFNIYFGLYQLILVPYFVRIFEPKSNALLYVLILICYFLYSFMLMPFDSSVLPYRTIFER | failed
16 | MSNNTKRVGSQTIELKSKPRIIATYSVVGPREGQGPLKEYFDKILQDDCNGCESFEKAESSLMITAIEGVIKKGNVKEEDVDYLFSGDLLNQLTSTNFVAREFKIPFFGVYGACSTMAESLSLSSMIMDGDFAKYAIASTSSHFSSAERQFRFPLEYGCQRKEYSQWTVTGSGAMLLGKSGDYPYVTHVTTGIVKDYGIKDADNMGAAMAPAAVDTIYKHFVDTGRKPEDYDVIATGDLGAVGKKLTEELLKEYGYDISKVYIDCGEKIFDNEKQGTFAGGSGCGCSAVVACGYLYRMLKEKKLKRVLLVSTGALLSSTSALQGESIPGIAHAVAIEYILEHHHHHH | not failed
17 | MTTTTNKAWRTICKATELVKDSGISALIANSAGEDEQIAIFHIPNSEEKIYAVGNYDPIGQANVLYRGLVGCIDDEPVVSSPLYKQHYSLKTGRCLQEDQTIAVYDIRIENEQVQLFYLEHHHHHH | failed
18 | MDPKSCENSSDVKGQTSDSVSKKVLIEEEEDVKKPQQGKENDSRMAKDVVSCSSNISAHVVHEEVADNVTAVSCNEAESDISKAKAKEFHTIDLSGVGERICRICHFGSDQSPEASGDDKSVSPELIEIGCKCKNELGLAHFHCAEAWFKLRGNR | failed
